Measurements from paper PMC12871931, “The importin‐alpha superfamily engages in ethylene signaling by shuttling ETHYLENE INSENSITIVE 2 from the endoplasmic reticulum to the nucleus” (The Febs Journal, 2025).

B1: GB1‐AtEIN2C^1215–1281 (domain or fragment)
chain: KGKCTTAVTLLDLIKDVEMAISCRKGRTGTAAGDVAFPKGKENLASVLKRYKRRLSNKPVGMNQDGP

biological target: ΔIBB_IMPα1 (importin α1 lacking the IBB domain), Arabidopsis thaliana, recombinant (Arabidopsis thaliana); assay: BLI; Octet K2; biotinylated ΔIBB_IMPα1 or IMPα4 loaded (15 μM, 600 s) on streptavidin biosensors; peptides/protein in solution; 100 mM Tris pH 7.0, 100 mM KCl, 0.01% Tween 20; room temperature; 300 s association, 300 s dissociation; dose response curves, 1:2 heterogeneous ligand model

Compared with B1, LKRYKRRL [NOP‐1 (EIN2 NLS peptide, EIN2 residues 1262–1269)] is 3.5-fold lower in Kd: 8.8 µM for the first, 2.5 µM for the second. The second binds more tightly here.

KDVEMAISCRKGRTGTAAGDVAFPKGKENLASVLKRYKRRL [N41P‐1 (EIN2 residues 1229–1269)] gave a Kd of 8.1 µM.
